From article PMC9114490
pEC50: −log10 of the molar value.

Target: Purified human C1q, P02745;P02746;P02747
Assay: FACS-based C1q binding assay
Conditions: for response: read off a plot

Row | Substance | pEC50 | response (parent: est. 42000) [MFI] | also measured
1 | 4A8 Parental E345R; E430G | 7.58 | – | response (parent: est. 65000): 750000 MFI
2 | EY6A Parental E345R; E430G | 7.38 | – | response (parent: est. 75000): 830000 MFI
3 | REGN10933 Parental E345R; E430G | 8.40 | 800000 | –
4 | REGN10987 Parental E345R; E430G | 7.98 | – | response (parent: est. 85000): 830000 MFI
5 | S230 parental IgG1 E345R; E430G | – | – | response (parent: est. 30000): 50000 MFI
6 | S309 parental IgG1 E345R; E430G | 8.00 | 800000 | –
